Test results reported in article PMC3448645, “Functional Studies of ssDNA Binding Ability of MarR Family Protein TcaR from Staphylococcus epidermidis”.

What was measured:
TcaR [1] = target: T1, TcaR (Staphylococcus epidermidis, UniProt Q5HLN6 1-151); assay: EMSA; EMSA: 20 mM Tris-HCl pH 8.0, 150 mM KCl, 0.1 mM MgCl2, 0.05 mM EDTA, 12.5% glycerol, 0.1 mM DTT, 1 mg/ml BSA, room temperature (30 C for viral ssDNA); SPR: 50 mM Tris, 150 mM NaCl, pH 7.5, 25 C; details: protein: recombinant, chain copies: 2
TcaR quadruple mutant = TcaR quadruple mutant (Staphylococcus epidermidis, UniProt Q5HLN6 1-151, R71A;K73A;R93A;K95A); assay: as above; details: protein: recombinant, chain copies: 2
TcaR [2] = target: T1, TcaR; assay: EMSA; no significant interaction; 1 uM DNA; EMSA: 20 mM Tris-HCl pH 8.0, 150 mM KCl, 0.1 mM MgCl2, 0.05 mM EDTA, 12.5% glycerol, 0.1 mM DTT, 1 mg/ml BSA, room temperature (30 C for viral ssDNA); SPR: 50 mM Tris, 150 mM NaCl, pH 7.5, 25 C; details: protein: recombinant, chain copies: 2
TcaR [3] = target: T1, TcaR; assay: EMSA; similar to GC33; small and large complexes; EMSA: 20 mM Tris-HCl pH 8.0, 150 mM KCl, 0.1 mM MgCl2, 0.05 mM EDTA, 12.5% glycerol, 0.1 mM DTT, 1 mg/ml BSA, room temperature (30 C for viral ssDNA); SPR: 50 mM Tris, 150 mM NaCl, pH 7.5, 25 C; details: protein: recombinant; chain copies: 2
TcaR [4] = target: T1, TcaR; assay: EMSA; similar to GC33; small complex; EMSA: 20 mM Tris-HCl pH 8.0, 150 mM KCl, 0.1 mM MgCl2, 0.05 mM EDTA, 12.5% glycerol, 0.1 mM DTT, 1 mg/ml BSA, room temperature (30 C for viral ssDNA); SPR: 50 mM Tris, 150 mM NaCl, pH 7.5, 25 C; details: protein: recombinant; chain copies: 2
TcaR [5] = target: T1, TcaR; assay: EMSA; weaker than the single strands; EMSA: 20 mM Tris-HCl pH 8.0, 150 mM KCl, 0.1 mM MgCl2, 0.05 mM EDTA, 12.5% glycerol, 0.1 mM DTT, 1 mg/ml BSA, room temperature (30 C for viral ssDNA); SPR: 50 mM Tris, 150 mM NaCl, pH 7.5, 25 C; details: protein: recombinant; chain copies: 2
TcaR [6] = target: T1, TcaR; assay: SPR; EMSA: 20 mM Tris-HCl pH 8.0, 150 mM KCl, 0.1 mM MgCl2, 0.05 mM EDTA, 12.5% glycerol, 0.1 mM DTT, 1 mg/ml BSA, room temperature (30 C for viral ssDNA); SPR: 50 mM Tris, 150 mM NaCl, pH 7.5, 25 C; details: protein: recombinant; chain copies: 2; label: 5' biotin (SPR)
TcaR [7] = target: T1, TcaR; assay: SPR; shown as '-' in table; EMSA: 20 mM Tris-HCl pH 8.0, 150 mM KCl, 0.1 mM MgCl2, 0.05 mM EDTA, 12.5% glycerol, 0.1 mM DTT, 1 mg/ml BSA, room temperature (30 C for viral ssDNA); SPR: 50 mM Tris, 150 mM NaCl, pH 7.5, 25 C; details: protein: recombinant; chain copies: 2

GAGCGTTGGCGTCGTGAGCGTTGGCGTCGTGCG (ssDNA) [GC33]
binding result (TcaR [1]; label: 5' biotin (SPR only)): binds | binding result (TcaR quadruple mutant; label: 5' biotin (SPR only)): no binding

GATTATTTATTTTCAAATTATTTATTTTCAAGG (ssDNA) [AT33]
binding result (TcaR [1]; label: 5' biotin (SPR only)): binds

GAGCGTTGGCGTCGTGC (ssDNA) [GC17]
binding result (TcaR [2]; label: 5' biotin (SPR only)): no binding

GATTATTTATTTTCAAG (ssDNA) [AT17]
binding result (TcaR [2]): no binding

GCGTTGGCGTCGTGAGCGTTGGCGTCGTG (ssDNA) [GC29]
binding result (TcaR [3]): binds

GTTGGCGTCGTGAGCGTTGGCGTCG (ssDNA) [GC25]
binding result (TcaR [4]): binds

B1: IcaR DNA1 (dsDNA)
DNA 1: TATTGCAAATTGAAATACTTTCGATTAGCATAT
DNA 2: ATATGCTAATCGAAAGTATTTCAATTTGCAATA
binding result (TcaR quadruple mutant): no binding | binding result (TcaR [5]): binds

GTTGGCGT (ssDNA) [GC8]
binding result (TcaR [6]): no binding

B2: Control dsDNA (dsDNA)
DNA 1: CCCCCGGGTTCGATGGGCTCAAGGCGGGCATGAAGTACCCCGTACTTCATGCCCGCCTTGAGCCCATCGAACCC
DNA 2: GGGTTCGATGGGCTCAAGGCGGGCATGAAGTACGGGGTACTTCATGCCCGCCTTGAGCCCATCGAACCCGGGGG
binding result (TcaR [7]): no binding

TATTGCAAATTGAAATACTTTCGATTAGCATAT (ssDNA) [IcaR DNA1S]
binding result (TcaR [1]): binds

ATATGCTAATCGAAAGTATTTCAATTTGCAATA (ssDNA) [IcaR DNA1A]
binding result (TcaR [1]): binds
